Measured values as given in patent publication US20230406922A1 (SIMCERE ZAIMING PHARMACEUTICAL, published 2023).

T1: human CD19-his protein (human, UniProt P15391 20-291)
T1 construct: also called recombinant human CD19-His; human CD19 protein; not shown: His tag
T1 sequence (looked up): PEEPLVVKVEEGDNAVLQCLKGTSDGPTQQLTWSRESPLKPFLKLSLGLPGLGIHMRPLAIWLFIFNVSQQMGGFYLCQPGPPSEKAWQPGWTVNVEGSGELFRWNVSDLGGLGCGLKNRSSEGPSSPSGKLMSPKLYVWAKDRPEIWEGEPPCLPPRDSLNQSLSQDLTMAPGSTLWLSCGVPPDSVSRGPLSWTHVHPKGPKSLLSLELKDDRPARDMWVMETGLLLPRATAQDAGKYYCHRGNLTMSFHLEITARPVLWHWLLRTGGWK

T2: human CD19 exon1-3-His protein (human, UniProt P15391 20-186)
T2 construct: Made in HEK293E cells, purified on nickel column; not shown: His tag
T2 sequence: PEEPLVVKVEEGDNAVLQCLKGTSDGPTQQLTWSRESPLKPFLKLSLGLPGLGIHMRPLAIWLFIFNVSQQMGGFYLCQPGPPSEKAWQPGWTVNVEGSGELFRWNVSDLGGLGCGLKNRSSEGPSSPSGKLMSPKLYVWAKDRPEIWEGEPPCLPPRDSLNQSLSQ

T3: human CD19, full length, on cells (human, UniProt P15391 20-556)
T3 construct: the endogenous CD19 of Raji cells is put under the same molecule (the cell type stands under assay); The entry holds the signal peptide; also called CHO-K1-human CD19; CHO-K1-human CD19-2C8
T3 sequence: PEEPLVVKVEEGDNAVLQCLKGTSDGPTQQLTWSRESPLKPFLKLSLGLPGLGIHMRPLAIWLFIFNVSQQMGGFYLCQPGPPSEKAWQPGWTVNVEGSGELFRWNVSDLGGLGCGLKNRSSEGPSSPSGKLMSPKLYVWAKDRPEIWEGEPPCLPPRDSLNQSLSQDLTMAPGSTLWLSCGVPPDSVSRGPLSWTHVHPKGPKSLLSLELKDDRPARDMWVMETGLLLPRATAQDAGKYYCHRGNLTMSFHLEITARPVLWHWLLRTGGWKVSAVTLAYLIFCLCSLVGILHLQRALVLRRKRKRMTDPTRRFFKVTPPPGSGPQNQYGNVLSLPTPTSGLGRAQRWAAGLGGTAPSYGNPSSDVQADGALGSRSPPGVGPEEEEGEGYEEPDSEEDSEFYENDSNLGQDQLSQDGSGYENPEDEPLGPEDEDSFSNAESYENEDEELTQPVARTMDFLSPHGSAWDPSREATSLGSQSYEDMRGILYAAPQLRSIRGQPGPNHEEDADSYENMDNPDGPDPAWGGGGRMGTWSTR


Tests used:
monkey CD19-his protein = monkey CD19-his protein (monkey); experiment: ELISA, monkey CD19 coated
Procedure: After incubation for 2 h at 37° C., the plate was washed 3 times with PBS. […] After incubation for 1 h at 37° C., the plate was washed 5 times with PBS. A TMB substrate was added at 50 μL/well. After incubation at room temperature for 10 min, a stop solution (1.0 N HCl) was added at 50 μL/well. The OD450 nm values were read on an ELISA microplate reader (Multimode Plate Reader, EnSight, purchased from Perkin Elmer). […] The negative control antibody mIgG1 was an antibody against hen egg lysozyme, anti-hel-mIgG1 (purchased from Biointron, Cat. No. B118301), and the data in the table were OD450 nm values.
IgG control was mIgG1, S003-NB151-89 was a clone that is selected from a library constructed by peripheral blood collected from Alpaca immunized by human CD19-His and can bind to a monkey CD19-His protein, and was used as a positive control, and the data in the table were OD450 nm values.

human CD19-his protein = target: T1, human CD19-his protein; experiment: SPR (Biacore), antibody captured on Protein A chip, human CD19-His as analyte, 1:1 Langmuir model
Procedure: The anti-human CD19 antibody was captured using a Protein A chip (GE Healthcare; 29-127-558). The sample and running buffer was HBS-EP+(10 mM HEPES, 150 mM NaCl, 3 mM EDTA, 0.05% surfactant P20) (GE Healthcare; BR-1006-69). The flow cell was set at 25° C. The sample block was set at 16° C. Both were pretreated with the running buffer. In each cycle, first, the test antibody was captured using the Protein A chip, and then a single concentration of CD19 antigen protein was injected. The association and dissociation processes of the antibody with the antigen protein were recorded, and finally, the chip was regenerated using Glycine pH 1.5 (GE Healthcare; BR-1003-54). The association was determined by injecting different concentrations of recombinant human CD19-His in the solution and maintaining for 240 s, wherein the flow rate was 30 μL/min, and the protein was diluted in a 1:1 dilution ratio from 200 nM (see detailed results for actual concentrations tested) to obtain 5 concentrations in total. The dissociation phase was monitored for up to 600 s and triggered by switching from the sample solution to the running buffer. The surface was regenerated by washing with 10 mM glycine solution (pH 1.5) at a flow rate of 30 μL/min for 30 s. The difference in bulk refractive index was corrected by subtracting the responses obtained from the goat anti-human Fc surface. Blank injections were also subtracted (double reference). To calculate the apparent KD and other kinetic parameters, the Langmuir 1:1 model was used.

[1] = target: T2, human CD19 exon1-3-His protein; experiment: ELISA on coated human CD19 exon1-3-His
[2] = target: T3, human CD19, full length, on cells; experiment: FACS on Raji cells
Text: The desired cells were expanded to a logarithmic growth phase in a T-75 cell culture flask. For adherent cells CHO-K1, the culture medium was removed by pipetting, and the cells were washed twice with a PBS buffer, digested with trypsin, and washed twice with a PBS buffer again after the digestion was stopped. For suspension cells Raji, the medium supernatant was discarded by direct centrifugation, and the cell pellet was washed twice with PBS. After cell counting of the cells obtained in the last step, the cell pellet was resuspended to 2×10⁶ cells/mL with a blocking solution [PBS+2% (w/w) BSA] and added into a 96-well FACS reaction plate at 50 μL/well. […] After the plate was centrifuged and washed 5 times with a PBS buffer, the results were assayed and analyzed by FACS (FACS Canto™, purchased from BD Biosciences). Data analysis was performed by software (CellQuest) to obtain the mean fluorescence intensity (MFI) of the cells. Then, analysis was performed by software (GraphPad Prism8), data were fitted, and EC₅₀ values were calculated.

Row | Binder | OD450 at 0.0001 nM (monkey CD19-his protein) | OD450 at 0.001 nM (monkey CD19-his protein) | OD450 at 0.01 nM (monkey CD19-his protein) | OD450 at 0.10 nM (monkey CD19-his protein) | OD450 at 1.00 nM (monkey CD19-his protein) | OD450 at 10.00 nM (monkey CD19-his protein) | OD450 at 100.00 nM (monkey CD19-his protein) | Kd (human CD19-his protein) | koff (human CD19-his protein) | kon (human CD19-his protein) | binding result [1] | EC50 [2] | maximum mean fluorescence intensity [2]
1 | FMC63.26-mIgG1 (antibody, V domains shown, Humanized FMC63; also called FMC63-L2H6) VH: EVTLKESGPVLVKPTETLTLTCTVSGFSLPDYGVSWIRQPPGKALEWLAVIWGSETTYYNSALKSRLTISKDTSKSQVVLTMTNMDPVDTATYYCAKHYYYGGSYAMDYWGQGTTVTVSS VL: DIQMTQSPSSLSASVGDRVTITCRASQDISKYLNWYQQKPGGAVKLLIYHTSRLHSGVPSRFSGSGSGTDYTLTISSLQPEDFATYYCQQGNTLPYTFGGGTKVEIKR | 0.05 OD450 | 0.05 OD450 | 0.05 OD450 | 0.05 OD450 | 0.05 OD450 | 0.06 OD450 | 0.1 OD450 | 346 pM | 3.36e-05 s⁻¹ | 97200 M⁻¹ s⁻¹ | no binding (tested: 100 nM) | 320 pM | 8500 MFI
2 | FMC63.25-mIgG1 (antibody, V domains shown, Humanized FMC63; also called FMC63-L2H5) VH: EVTLKESGPVLVKPTETLTLTCTVSGFSLSDYGVSWIRQPPGKALEWLAVIWGSETTYYNSALKSRLTISKDTSKSQVVLTMTNMDPVDTATYYCAKHYYYGGSYAMDYWGQGTTVTVSS VL: DIQMTQSPSSLSASVGDRVTITCRASQDISKYLNWYQQKPGGAVKLLIYHTSRLHSGVPSRFSGSGSGTDYTLTISSLQPEDFATYYCQQGNTLPYTFGGGTKVEIKR | 0.1 OD450 | 0.1 OD450 | 0.09 OD450 | 0.08 OD450 | 0.08 OD450 | 0.1 OD450 | 0.12 OD450 | 19.5 pM | 1.8e-06 s⁻¹ | 92400 M⁻¹ s⁻¹ | no binding (tested: 100 nM) | 330 pM | 9170 MFI
3 | FMC63.27-mIgG1 (antibody, V domains shown, Humanized FMC63; also called FMC63-L2H7) VH: EVTLKESGPVLVKPTETLTLTCTVSGVSLPDYGVSWIRQPPGKALEWLAVIWGSETTYYNSALKSRLTISKDNSKSQVVLTMTNMDPVDTATYYCAKHYYYGGSYAMDYWGQGTTVTVSS VL: DIQMTQSPSSLSASVGDRVTITCRASQDISKYLNWYQQKPGGAVKLLIYHTSRLHSGVPSRFSGSGSGTDYTLTISSLQPEDFATYYCQQGNTLPYTFGGGTKVEIKR | 0.05 OD450 | 0.05 OD450 | 0.05 OD450 | 0.05 OD450 | 0.05 OD450 | 0.05 OD450 | 0.1 OD450 | 1810 pM | 0.000152 s⁻¹ | 84200 M⁻¹ s⁻¹ | no binding (tested: 100 nM) | 300 pM | 7840 MFI
